“Also recorded” adds a separate entry of the source.
Key:
Format in all cases: biochemical
[1] = Michaelis-Menton initial rates experiments, batch vs VFD (Table 1); conditions: Batch (non-VFD)
Experimental: In determining if the observed acceleration is due to a kinetic or thermodynamic effect, the initial rates of each reaction were explored. All five enzymes were subjected typical kinetic experiments using the Michaelis-Menton model. The intrinsic values of the enzymes in a batch type and VFD system could be ascertained (Table 1).
To a 17.7 mm internal diameter VFD tube was added the substrate and enzyme in buffer at the appropriate concentration. The VFD tube was rotated about its axis at a specific rotational speed at an inclination angle of 45-degrees. After a set amount of time had elapsed, the rotation was immediately halted and the quenching reagent added. The exact same reaction was run alongside the VFD in mimicking a non-VFD process. From both the VFD processed and non-VFD processed sample an aliquot of 0.100 mL was removed and added to a 96 well plate and read at 405 nm to detect the production of p-nitrophenoxide. These measurements were carried out in triplicate and allow an accurate comparison to be drawn between VFD and non-VFD processing. For all alterations to this general protocol, assay and further experimental design, see supporting information.

[2] = Alkaline phosphatase VFD vs batch enhancement, incl. steric crowding (Example 1); conditions: VFD 10 minutes
Experimental: In a typical experiment, fast thermosensitive alkaline phosphatase (1 μL, 1 unit, Thermo-Fisher) was added to 10 mL of diethanolamine buffer (1.0 M diethanolamine buffer with 0.50 mM magnesium chloride at pH 9.8 at 25° C.) in creating an enzyme stock solution. This solution was stored on ice and not stored for more than two hours. p-nitrophenyl phosphate liquid substrate solution (500 μL, Sigma-Aldrich) was added to a 20 mm external diameter VFD tube. To this was added alkaline phosphatase enzyme solution (800 μL) and the tube was inserted into the VFD and immediately spun to the required rotational speed. The VFD tube was rotated about its axis for 10 minutes at a 45-degree tilt angle relative to the horizontal position. At the end of this time 4 M NaOH (150 μL) was added in quenching the reaction. The sample was then added to a 96-well reader plate and the absorbance read at 401 nm (being the λmax for this system with 150 μL NaOH quench). […] From a comparison of the absorption values of the VFD vs. batch an enhancement factor can be determined (FIGS. 3A-3N).
For the steric crowding studies the following method was performed. […] The sample was then added to a 96-well reader plate and the absorbance read at 401 nm (being the λmax for this system with 150 μL NaOH quench). […] From a comparison of the absorption values of the VFD vs. batch an enhancement factor can be determined (FIGS. 3A-3N).

[3] = Alkaline phosphatase VFD acceleration, crowding and centrifuge control (Example 4)
Experimental: The enzyme-substrate solution (alkaline phosphatase and p-nitrophenol phosphate) was subjected to centrifugation in a bench top centrifuge at the indicated rotational speeds for 10 min. A direct comparison was then made between a VFD sample and a centrifuged sample (FIG. 12).
FAsTAP™ thermosensitive alkaline phosphatase (1.0 μL, 0.11 mM) was added to 10 mL of the diethanolamine buffer to generate an enzyme stock solution (11.1 nM). This solution was made fresh every two hours and stored on ice. Each sample was prepared by combining 0.800 mL of the enzyme stock solution and 0.500 mL of alkaline phosphatase liquid substrate system (pNPP, Sigma-Aldrich, 0.435 mM); this solution (1.3 mL) was added to either an Eppendorf or VFD sample tube. The reaction was incubated at 25° C. for 10 min unless otherwise indicated. […] The sample (100 μL) was then transferred to a 96-well micro plate reader, and the absorbance measured at 402 nm (λmax). […]
To explore the ability of VFD-mediated processing to overcome steric crowding reagents, two PEG polymers with average MW of 3350 and 8000 g/mol were added to the alkaline phosphatase-substrate solutions as follows. The appropriate quantities of PEG reagent for the indicated final concentrations were dissolved in diethanolamine buffer (total volume of 10.0 mL). […] The absorbance of the solution was then measured at 402 nm (FIG. 23).

[4] = Immobilized alkaline phosphatase reactor: continuous flow stability; conditions: amine-glutaraldehyde cross linker, 10 h, 1 mL min^−1
Experimental: FIG. 64 depicts amine-glutaraldehyde cross-linker immobilization. Glutaraldehyde solution (90 μL in 3.00 mL PBS) was added to a freshly coated sample tube. The sample tube was then capped, and inserted into a VFD. The sample tube was rotated at 8 krpm for 30 min to create the APTES-glutaraldehyde cross linker. After rotation, the sample tube was then rinsed with PBS (6×5 mL) and inverted to remove the majority of the buffer solution. The enzyme immobilization step was then carried out as described above. Following this, the sample tube was removed from the VFD and washed with PBS (5×5 mL, pH 8.0), and inverted to remove the majority of the buffer solution. The sample tube was then loaded back into the VFD before addition of NaBH3CN (18.8 mg) in sodium acetate buffer (50 mM, pH 5.0, 3.00 mL). The sample tube was then capped and rotated at 8 krpm for 30 min. […]
The p-nitrophenol phosphate substrate solution (0.01 M in 1.0 M diethanolamine) was prepared as follows: […] of diethanolamine was added to 1.0 L of H2O, then the pH of the solution was adjusted to pH 9.8 using 5 M HCl. […] The aliquot was then analyzed via absorption spectroscopy as described above. […]

What does the source list for alkaline phosphatase?
Km [1]: 484 µM; Vmax (Mol/sec) Batch [1]: 2.271e-08 mol/s; kcat (sec^−1) Batch [1]: 1 s⁻¹; enhancement compared to a non-VFD sample, crowded solution ([2]; 6 mg/mL PEG8000 dopant, 45-degree tilt): ~12 ×; enhancement in activity compared to a non-VFD sample ([2]; 45-degree tilt angle): ~6 ×; enhancement of VFD-processed enzyme in high concentration of PEG 8000 ([3]; PEG 8000 (6.00 mg/ml, 0.75 M)): ≈ 9 fold; effect of centrifugation on enzymatic activity (control) ([3]; centrifuged at 14 krpm (17530 g), no VFD): no increase in enzymatic activity; stability of immobilized enzyme in continuous flow [4]: stable levels of substrate conversion for 10 h; also recorded: good stability over 10 h of processing
